This is an account of results in publication PMC2879411, “Molecular Basis for the Dual Function of Eps8 on Actin Dynamics: Bundling and Capping” (PLoS Biology, 2010).

This assay deals with monomeric actin (CaATP-G-actin) from rabbit muscle, unlabelled (rabbit, UniProt P68135 1-377). Put plainly: cell-based or functional assay.

With VCPEGARVFNQITVQKAALEDSNG [Eps8 isolated predicted helix H5 (residues 765–788)], the “Kd from inhibition of barbed end growth (spectrin-actin seeds)” value is 40 µM and the “Kd from inhibition of pointed end growth (gelsolin-actin seeds)” value was found to be 32 µM.
